Measured values: patent US20160052996A1

B1: NI-307.43E8 (antibody, V domains shown)
VH: EVQLVESGGDVVQPGRSLRLSCAASGFAFSIYAMNWVRQAPGKGLEWVALISTSGTEHYADSVKGRFTISRDNSKNTLFLQINSLRVEDTAVYYCARDLDSTGYYENNYWGQGTLVTVSS
VL: DVVMTQSPLSSPVSLGQPASISCRSSHSLVHSNGDTYLSWLQQRPGQPPRLLIYKISNRFSGVPDRFSGSGAGTDFTLKISRVEAEDVGVYFCMQATSFPRTFGQGTKVEIK
B2: NI-307.18E12 (antibody, V domains shown)
VH: QVQLQQWGAGLLKPSETLSLTCAVYGDSFSGFFWAWIRQTPGTGLEWIGEIQHGGSPTYNPSFESRLTISTDASKSQVSLKMTSVTVTDTAIYYCARCIRGKYGSGSLQLWSQGTLVTVSS
VL: DIQLTQSPSFLSASVGDRVTITCRASQDINYHLAWYRQKPGKAPDLLIHSAHTLHIGVSSRFSGSGSGTEFTLTIHTLQPEDFATYYCHQPKTFPPTFGGGTKVDIK
B3: NI-307.3G4 (antibody, V domains shown)
VH: QVQLVQSGAELKKPGAAVKVSCQASGYNFLSYGINWVRQIPGQGLQWLGWISTYDGTMNYDQKPDNRVTVTTDTSSSTVYLELRGLRSDDTGVYYCVRDRCAGAGCSHSLGYWGQGTLVTVSS
VL: DIQMTQSPSALSASVGDRVTISCRASQNINTQLNWYQEKPGKAPELLIYGAFNLQSGAPSTFSGSGSGTDFTLTITSLQPEDFASYYCQQGFHAPYTFGRGTKVDIK
B4: NI-307.6A2 (antibody, V domains shown)
VH: QVQLQESGPGLVKPSETLSLTCAVSGGSVSSSYWYSWVRQLPGKGLEWIGEIFHTGDTNYNPSLESRVTISIDTSKNQLSLDVTSATAADTAVYYCARDYCTDSGCDSDALDVWGHGTMVTVSS
VL: QSALTQPASVSGSPGQSITISCTGTTKDVGNYNLVSWYQQHPGKAPRLVIYEVSERPSGVSNRFSGSKSGNTASLTISGLQAEDEADYHCCSYAGSGTSVFGGGTKVTVL
B5: NI-307.19F10 (antibody, V domains shown)
VH: EVQLVESGGGLVQPGGSVSLSCAASGFTFPVYWMHWVRQAPEKGLMWVSRISPDGTIVDYAGSVKGRFTVSRDNAKNILYLQIQRLTAEDTAVYFCTKDFDVASGFWGQGTLVTVSS
VL: QSALTQPPSASGSPGQSVTISCTGSKSDVGTCHFVSWYQQHPGKVPKLVIYEGNKRPSGVPDRFSASKSGNTASLTISGLQPGDEADYYCSTCAGPNNYVFGTGTKVTVL
B6: NI-307.24F3 (antibody, V domains shown)
VH: QVQLQESGGGVVQPGRSLRLSCAASGFSFNRYGMHWVRQAPGKGLEWLAVISNDGVNTHYADSVKGRFTISRDNSKSTLYLQASSLRVEDTAVYYCAGYYYGSGTSLFFYWGQGTLVTVSS
VL: EIVLTQSPDSLAVSLGERATINCKSSQTVLYSSNNQNYLAWYQQKPGQPPKLLLYWASTRESGVPDRFSGSGSGTDFTLTISSLQPEDVAVYYCQQYYTAPYTFGQGTKVEIK
B7: NI-307.25G10 (antibody, V domains shown)
VH: EVQLVESGGGLVQPGGSLRLSCVASGIIFKDYDFHWVRQVKEKGLEWVSAIGTAGDPYYAASVKGRFTVSRENGKNSVYLRMNNVGAGDTALYYCTSGNYFDRGSFRPSAFDMWGQGTMVTVSS
VL: EIVLTQSPGTLSLSPGERATLSCWASQSVSSNYLAWYQHKPGQAPRLLIFRASRRATDIPERFSAGGSGTDFTLTISRLEAEDSAVYYCQEYGSAPPASITFGQGTRLEIK
B8: NI-307.43A11 (antibody, V domains shown)
VH: QVQLQESGPGLVKPSGTLSLTCAVTGGSISSSNWWSWVRQSPGKGLEWIGEIHHDGNLNYNPLLKSRVSMSLDRSKNQFSLKLTSVTAADTAVYYCARWDFFFDSSYYIRGFDLWGQGTMVTVSS
VL: ETTLTQSPGTLSLSPGERVTLSCRASQSVDRNYLAWYQQKPGQSPRLLIYSASRRATGIPDRFSGSGSGTDFTLTISRLEPEDFVVYYCQQYGGSPPITFGQGTRLEIK
B9: NI-307.57D5 (antibody, V domains shown)
VH: EVQLVESGGGLAQPGGSLRLSCAGSGFTLSDFAMSWVRRAPGKGLEWVSSLTPSGRNSFYSDSVKGRFTISRDNWKNTLYLEMNLLRPEDTAVYYCARPGAPKNSDSKYSYVRVDFQHWGQGTLVTVSS
VL: NFMLTQPHSVSESPGRTVTISCTRSSGSIANNFVQWYQHRPGSAPTTLIYEDDQRPSGVPDRFSGSVDSFSNSASLTISGLKTEDEADYFCQSYDNHNWVFGGGTTLTVL
B10: NI-307.78C3 (antibody, V domains shown)
VH: QVQLQESGPGLVKPSGTLSLTCTVSGGSISGRIWWSWVRQPPGKGLEWIGEIYHSGSTNYSPSLRGRVTISVDTSKQHFSLKMTSVTAADTAMYYCVRGELALGFDSWGQGTLVTVSS
VL: QSALTQPPSASGSPGQSVTISCTGTSSDVGGYNSVSWYQQHPRRAPKLMIYEVSKRPSGVPDRFSGSKSGNTASLTVSGLQADDEAHYYCSSYAGSNNLVFGGGTMLTVL
B11: NI-307.1E1 (antibody, V domains shown)
VH: EVQLVESGGGLVKPGGSLRLSCAASGFIFSDAWMNWVRQAPGKGLEWVGHIKSRPAGGTTEYAAPVKGRFTISRDDSTDTLYLQMNNLKAEDTAVYYCSTGHYGVYGLGTLVTVSS
VL: DIQMTQSPSTLSASVGDRVTITCRASQSIRDYLAWYQQKPGKAPKLLIYDGSILEGGVPSRFSGSVSGTDFTLTISSLQSDDFATYYCQQYTSYSSWTFGQGTKVEIK
B12: NI-307.5H3 (antibody, V domains shown)
VH: QVQLQESGPGLLKPLGTLSLICDVSGDSISSSNWWSWVRQSPRKGLEWIGEIYHSGRTNYNPSLTNRVTISVDKSKNQFSLNLNSVTAADTGVYYCARWDYYYNNDYYIRGFDIWGQGTMVTVSS
VL: EIVLTQSPGILSLSPGERATLSCRASQSVDSNYLAWYQQKPGQAPRLLIYSTSTRAAGVPDRFSGSGSGTDFALTISGLEPEDFAVYYCQQWGGSPPITFGQGTRLEIK
B13: NI-307.24C6 (antibody, V domains shown)
VH: QLQLQESGPGLVKPSGTLSLICVVSGSSIRSNIWWWNWVRQSPGKGLEWIGEIYHSGSTNYSPSLKSRVTMSVDNSKNQFSLKMSSVTAADTAVYFCAINTRTSISGVLYDTFDVWGQGTMVTVSS
VL: EIVLTQSPATLSLSSGERATLSCRASQSVSGYLAWYQQKPGQAPRLLIYDGSNRATGIPARFSGSGSGTDFTLTISSLEPEDFAVYYCQHRSNWPMYTFGQGTKLEIK
B14: NI-307.26E10 (antibody, V domains shown)
VH: EVQLVESGGGLVLPGGSLRLSCAVSGFTVRNEYMRWARQAPGRGLEWVSVIYRDGQTHHADTVKGRFDVSKDTSKNTMYLQMHNLRVDDTAIYYCARGHYGPWGQGTLVTVSS
VL: DIQMTQSPSTLPASVGDRVTITCRASQSINNWLAWYQQKPGKAPNLLIYDASNLETGVPSRFSGSGSGTEFTLTISSLQPDDFATYYCQQYNSHSHTWTFGQGTKVEIK

What was measured:
[1] = biological target: BKV VP1 (BK virus (BKV), AS strain) (UniProt P14996); experiment: direct ELISA, plate coated with antigen at 5 µg/ml in carbonate buffer; EC50 by non-linear regression (GraphPad Prism)
Chain of BKV VP1 (BK virus (BKV), AS strain) (P14996 whole entry): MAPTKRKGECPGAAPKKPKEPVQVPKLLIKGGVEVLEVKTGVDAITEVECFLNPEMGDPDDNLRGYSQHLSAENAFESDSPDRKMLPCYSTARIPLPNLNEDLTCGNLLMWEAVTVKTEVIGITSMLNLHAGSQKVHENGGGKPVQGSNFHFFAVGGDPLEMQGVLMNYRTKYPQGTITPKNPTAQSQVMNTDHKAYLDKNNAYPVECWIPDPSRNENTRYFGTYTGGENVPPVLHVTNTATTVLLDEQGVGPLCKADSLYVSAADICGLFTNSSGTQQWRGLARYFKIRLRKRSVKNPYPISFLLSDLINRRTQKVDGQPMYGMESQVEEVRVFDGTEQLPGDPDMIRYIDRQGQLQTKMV

[2] = biological target: BKV VP1 VLP (BK virus (BKV), AS strain) (UniProt P14996); experiment: direct ELISA, plate coated with antigen at 5 µg/ml in reassociation buffer (VLP); EC50 by non-linear regression (GraphPad Prism)
Chain of BKV VP1 VLP (BK virus (BKV), AS strain) (P14996 whole entry): as above

[3] = biological target: BKV VP1 VLP (BK virus (BKV), AS strain) (UniProt P14996); experiment: direct ELISA
[4] = biological target: BKV VP1 (BK virus (BKV), AS strain) (UniProt P14996); experiment: direct ELISA
[5] = biological target: JCV VP1 VLP (JC virus (JCV), Mad-1 strain) (UniProt P03089); experiment: direct ELISA
Chain of JCV VP1 VLP (JC virus (JCV), Mad-1 strain) (P03089 whole entry): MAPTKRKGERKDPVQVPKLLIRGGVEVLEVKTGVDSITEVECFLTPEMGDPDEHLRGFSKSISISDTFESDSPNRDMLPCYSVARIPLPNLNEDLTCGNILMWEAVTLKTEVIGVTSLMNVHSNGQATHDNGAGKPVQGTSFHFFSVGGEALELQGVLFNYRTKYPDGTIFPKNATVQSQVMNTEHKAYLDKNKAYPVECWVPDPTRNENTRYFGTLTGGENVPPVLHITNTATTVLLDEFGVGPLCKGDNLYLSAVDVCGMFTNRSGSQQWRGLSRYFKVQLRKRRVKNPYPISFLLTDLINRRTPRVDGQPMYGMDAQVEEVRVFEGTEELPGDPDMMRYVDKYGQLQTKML

| Binder | EC50 [1] | EC50 [2] | EC50 [3] | EC50 [4] | EC50 [5] |
| --- | --- | --- | --- | --- | --- |
| B1 | 0.34 nM | 0.38 nM | – | – | – |
| B2 | 61.5 nM | 111 nM | – | – | – |
| B3 | – | – | 16.4 nM | 27.4 nM | – |
| B4 | – | – | 1.17 nM | 1.79 nM | – |
| B5 | – | – | 1.1 nM | 2.41 nM | – |
| B6 | – | – | 28.8 nM | 1.04 nM | – |
| B7 | – | – | 0.172 nM | 0.514 nM | – |
| B8 | – | – | 10 nM | 9.7 nM | – |
| B9 | – | – | 104 nM | 37.5 nM | – |
| B10 | – | – | 0.939 nM | 1.96 nM | – |
| B11 | – | – | 11 nM | 6.05 nM | 281 nM |
| B12 | – | – | 0.288 nM | 0.362 nM | – |
| B13 | – | – | 0.396 nM | 0.816 nM | – |
| B14 | – | – | 0.74 nM | 1.35 nM | – |
